Laboratory results taken from doi:10.1101/2025.11.13.688252, “Cap1 forms a cyclic tetra-adenylate-induced membrane pore during the type III-A CRISPR-Cas immune response” (bioRxiv, 2025).

Key:
[1] = target: T1, Cap1 (CRISPR-associated pore 1) (Parafilimonas terrae, UniProt A0A1I5TJE5, Q118A); test: ITC with purified CARFL Q118A domain; type: binding
T1 construct: gene SAMN05444277_102160; CARFL domain (residues 85–220), His6-tagged

[2] = target: T2, Cap1 (CRISPR-associated pore 1) (Parafilimonas terrae, UniProt A0A1I5TJE5); test: ITC with purified CARFL domain; cryo-EM structure of cA4-bound full-length tetramer ([…] Å); type: binding
T2 construct: gene SAMN05444277_102160; ITC: CARFL domain (residues 85–220), His6-tagged; cryo-EM: full-length Cap1-His6 in GDN, homotetramer
T2 sequence (A0A1I5TJE5 85-220): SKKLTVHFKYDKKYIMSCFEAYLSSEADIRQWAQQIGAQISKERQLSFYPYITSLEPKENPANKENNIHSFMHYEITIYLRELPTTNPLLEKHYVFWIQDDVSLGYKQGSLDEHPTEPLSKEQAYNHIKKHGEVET

[3] = target: Cap1 (CRISPR-associated pore 1), full-length, C-terminal His6 tag (Parafilimonas terrae); test: cryo-EM structure; Cap1 in GDN, 150 μM (as monomer) with 800 μM cA4, 30 min on ice; two classes: 2.9 Å (C4; DUF4579 not visible) and 3.6 Å (C4; DUF4579 visible, TM1 not resolved)
[4] = target: Cap1 (CRISPR-associated pore 1), full-length, C-terminal His6 tag (Parafilimonas terrae); test: cryo-EM structure; apo-Cap1 in GDN, 200 μM protein, 0.5 mM FOM detergent added for grids; map at 3.4 Å, C1 symmetry
[5] = target: Cap1 (CRISPR-associated pore 1), full-length, C-terminal His6 tag (Parafilimonas terrae); test: SEC-MALS; conjugate SEC-MALS (protein conjugate method) of apo-Cap1 without cOA ligand; Superdex200 10/300 increase; 25 mM Hepes pH 8, 200 mM NaCl, 2 mM β-mercaptoethanol, 5 % glycerol, 375 μM GDN

Row | stoichiometry N [3] | stoichiometry N [4] | stoichiometry N [5] | Compound | Kd [1] | Kd [2]
1 |  |  |  | Nc1ncnc2c1ncn2[C@@H]1O[C@@H]2COP(=O)(O)O[C@H]3[C@@H](O)[C@H](n4cnc5c(N)ncnc54)O[C@@H]3COP(=O)(O)O[C@H]3[C@@H](O)[C@H](n4cnc5c(N)ncnc54)O[C@@H]3COP(=O)(O)O[C@H]3[C@@H](O)[C@H](n4cnc5c(N)ncnc54)O[C@@H]3COP(=O)(O)O[C@H]2[C@H]1O [cA4, cyclic tetra-adenylate] | ~1200 nM | ~33 nM
2 | 4 | 4 | 4 | Cap1 (CRISPR-associated pore 1), full-length, C-terminal His6 tag (natural protein) |  | 
